# Measured values reported in paper PMC12333492, “Co-enzyme-free, enzymatic synthesis of aldehydes from renewable resources with a new and highly efficient alkene cleaving dioxygenase” (Green Chemistry, 2025).
# T1: PAD (Heyndrickxia coagulans, UniProt A0A0C5C6Z1)
# T1 construct: gene SB48_HM08orf00536; co-expressed with MapADO on one pET28 vector, E. coli BL21 (DE3) resting cells
# T1 sequence (A0A0C5C6Z1 1-167): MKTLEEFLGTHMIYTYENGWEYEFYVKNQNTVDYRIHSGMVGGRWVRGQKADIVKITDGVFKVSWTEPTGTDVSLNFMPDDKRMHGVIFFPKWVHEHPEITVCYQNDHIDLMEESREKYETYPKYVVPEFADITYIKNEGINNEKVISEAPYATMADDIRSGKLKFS
# B1: MapADO (Moesziomyces aphidis) (protein)
# chain: MAPTATQEPVPVPVTSKAAPSHGYVHPTDILPSGWPTATDLSGGAQPRRFEGTIFDVMTRGTIPKELHGTFYRIMPDYAQPPTYYKGGELNAPIDGDGTVAAFRFKDGKVDYRQRFVETDRFKVERRARKSMYGLYRNPYTHHPCVRQTVESTANTNVVMHAGRFLAMKENGNAYEMDPHTLKTLGYNPFNLPSKTMTAHPKQCSVTGNLVGFGYEAKGLATKDVYYFEVDPSGKVVRDLWLEAPWCAFIHDCALTPNYLVLMLWPFEANLERMKAGGHHWAYDYTKPITWITIPRGAKSKDEVKYWHWKNGMPIHTASGFEDEQGRIIIDSSLVHGNAFPFFPPDSDEQKKKQEADGTPKAQFVRWTIDPRKDNNEQLPDPEVILDTPSEFPQIDNRFMGVEYSSAFINVFVPDRSDGNKNVFQGLNGLAHYKRKEGTTEWYYAGDNCLIQEPVFSPRSKDAPEGDGFVLAIVDRLDLNRSEVVVIDTRDFTKAVAAVQLPFAIRSGIHGQWIPGEVTPDFETKGLVDLPKEEHWAPLSQSPYDPDA
# notes: codon-optimized, pET-28a, His6 tag, E. coli BL21 (DE3), IMAC purified, FeCl2 supplemented
# What was measured:
# PAD = molecular target: T1, PAD; assay: whole-cell decarboxylation to 4-vinylguaiacol, HPLC; assay type: cell-based; settings: co-expressed with MapADO; 200 mM phosphate pH 7.4, 30 °C
# MapADO = molecular target: T2, MapADO (Moesziomyces aphidis, UniProt W3VHW6); assay: continuous UV-Vis initial rate of vanillin formation ([…] nm); assay type: biochemical; settings: O2 co-substrate; 10 mM potassium phosphate pH 7.4, 30 °C, 2% EtOH; initial-rate value taken (endpoint HPLC fit also printed in the 2nd table, row 3)
# T2 construct: gene PaG_05861; codon-optimized, pET-28a, His6 tag, E. coli BL21 (DE3), IMAC purified, FeCl2 supplemented
# endpoint HPLC-UV [1] = substrate: C=Cc1ccc(O)c(OC)c1; assay: endpoint HPLC-UV; assay type: biochemical, Moesziomyces aphidis; settings: O2 co-substrate, 10 mM potassium phosphate pH 7.4, 30 °C, 2% EtOH, endpoint measurement (authors: endpoint overestimates kcat and KM)
# Text: (§1) endpoint HPLC-UV on MapADO
# endpoint HPLC-UV [2] = substrate: Oc1ccc(/C=C/c2cc(O)cc(O)c2)cc1; assay: endpoint HPLC-UV; assay type: biochemical, Moesziomyces aphidis; settings: O2 co-substrate, 10 mM potassium phosphate pH 7.4, 30 °C, 2% EtOH, endpoint measurement (authors: endpoint overestimates kcat and KM)
# Text: as §1
# [3] = substrate: COc1cc(/C=C/CO)ccc1O; assay: UV-Vis spectrophotometric initial rate; assay type: biochemical, Moesziomyces aphidis; settings: O2 co-substrate, 10 mM potassium phosphate pH 7.4, 30 °C, 2% EtOH
# Text: UV-Vis spectrophotometric initial rate on MapADO
molecule,measurement,setting,value
"COc1cc(/C=C/C(=O)O)ccc1O [2a, ferulic acid]","whole-cell decarboxylation to 4-vinylguaiacol, HPLC",PAD,The decarboxylation was effective and resulted in the rapid accumulation of 2b
"CC=Cc1ccc(O)c(OC)c1 [1b, isoeugenol]",Km,MapADO,118 ± 13 µM
B1,Km,endpoint HPLC-UV [1],220 ± 46 µM
same,kcat,endpoint HPLC-UV [1],361 ± 12 s⁻¹
same,Km,endpoint HPLC-UV [2],49 ± 9 µM
same,kcat,endpoint HPLC-UV [2],3.2 ± 0.1 s⁻¹
same,Km,[3],445 ± 125 µM
same,kcat,[3],90 ± 8 s⁻¹
